According to article doi:10.1101/2021.09.23.461563:

What was measured:
[1] = biological target: GST-ErpB (Borrelia burgdorferi strain B31); assay: SPR
[2] = biological target: GST-ErpQ (Borrelia burgdorferi strain B31); assay: SPR
[3] = biological target: C1r enzyme (activated form of human C1r) (human) (UniProt P00736); assay: ELISA
[4] = biological target: C1s enzyme (activated form of human C1s) (human) (UniProt P09871); assay: ELISA
[5] = biological target: human C1 complex (C1qC1r2C1s2) (human) (UniProt P02745); assay: ELISA
Chain of human C1 complex (C1qC1r2C1s2) (human) (P02745 whole entry, looked up, one chain of several): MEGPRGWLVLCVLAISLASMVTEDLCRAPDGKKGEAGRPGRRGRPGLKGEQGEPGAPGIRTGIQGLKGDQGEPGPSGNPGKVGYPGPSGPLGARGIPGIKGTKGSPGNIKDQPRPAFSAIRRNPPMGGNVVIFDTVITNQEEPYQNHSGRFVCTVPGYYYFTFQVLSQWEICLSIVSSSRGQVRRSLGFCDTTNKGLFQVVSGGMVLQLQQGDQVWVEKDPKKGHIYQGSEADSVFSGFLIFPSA

Chain of C1r enzyme (activated form of human C1r) (human) (P00736 18-463, chain 1 of 2): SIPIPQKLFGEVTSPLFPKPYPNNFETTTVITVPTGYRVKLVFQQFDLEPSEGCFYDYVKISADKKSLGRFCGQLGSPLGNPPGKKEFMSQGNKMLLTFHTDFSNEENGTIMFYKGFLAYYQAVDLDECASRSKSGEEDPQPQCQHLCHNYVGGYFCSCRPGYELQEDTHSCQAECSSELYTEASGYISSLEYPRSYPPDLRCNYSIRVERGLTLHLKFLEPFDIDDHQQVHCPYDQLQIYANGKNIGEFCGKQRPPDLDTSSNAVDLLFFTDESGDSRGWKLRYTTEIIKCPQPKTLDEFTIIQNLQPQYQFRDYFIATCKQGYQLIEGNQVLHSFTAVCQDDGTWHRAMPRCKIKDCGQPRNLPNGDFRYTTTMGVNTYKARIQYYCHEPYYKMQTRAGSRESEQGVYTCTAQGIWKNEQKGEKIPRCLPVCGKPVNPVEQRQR
Chain of C1r enzyme (activated form of human C1r) (human) (P00736 464-705, chain 2 of 2): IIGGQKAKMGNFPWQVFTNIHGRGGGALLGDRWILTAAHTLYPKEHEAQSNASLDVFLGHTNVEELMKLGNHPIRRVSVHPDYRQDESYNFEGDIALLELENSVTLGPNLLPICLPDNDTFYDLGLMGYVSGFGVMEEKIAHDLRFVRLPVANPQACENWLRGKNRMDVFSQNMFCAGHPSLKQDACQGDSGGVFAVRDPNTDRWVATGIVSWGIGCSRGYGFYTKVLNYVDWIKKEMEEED
Chain of C1s enzyme (activated form of human C1s) (human) (P09871 16-437, chain 1 of 2): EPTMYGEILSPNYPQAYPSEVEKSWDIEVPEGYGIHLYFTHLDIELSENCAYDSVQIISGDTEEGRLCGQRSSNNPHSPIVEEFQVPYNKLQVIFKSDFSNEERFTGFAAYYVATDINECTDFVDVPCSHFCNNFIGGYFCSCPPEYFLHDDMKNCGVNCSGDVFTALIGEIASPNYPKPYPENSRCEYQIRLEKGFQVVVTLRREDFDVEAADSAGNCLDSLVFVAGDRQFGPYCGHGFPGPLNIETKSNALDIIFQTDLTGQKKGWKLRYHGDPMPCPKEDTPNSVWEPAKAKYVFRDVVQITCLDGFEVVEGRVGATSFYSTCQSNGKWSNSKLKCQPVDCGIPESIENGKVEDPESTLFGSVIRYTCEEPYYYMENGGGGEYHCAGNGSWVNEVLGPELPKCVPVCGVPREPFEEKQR
Chain of C1s enzyme (activated form of human C1s) (human) (P09871 438-688, chain 2 of 2): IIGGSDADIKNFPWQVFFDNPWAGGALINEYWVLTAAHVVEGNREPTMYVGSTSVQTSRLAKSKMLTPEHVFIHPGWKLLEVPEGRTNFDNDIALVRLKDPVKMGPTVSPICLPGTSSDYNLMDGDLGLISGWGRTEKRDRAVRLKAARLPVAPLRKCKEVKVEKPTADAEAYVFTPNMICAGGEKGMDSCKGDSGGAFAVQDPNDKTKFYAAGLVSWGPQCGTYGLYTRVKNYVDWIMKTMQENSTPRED
Chain of human C1 complex (C1qC1r2C1s2) (P02746 whole entry, looked up): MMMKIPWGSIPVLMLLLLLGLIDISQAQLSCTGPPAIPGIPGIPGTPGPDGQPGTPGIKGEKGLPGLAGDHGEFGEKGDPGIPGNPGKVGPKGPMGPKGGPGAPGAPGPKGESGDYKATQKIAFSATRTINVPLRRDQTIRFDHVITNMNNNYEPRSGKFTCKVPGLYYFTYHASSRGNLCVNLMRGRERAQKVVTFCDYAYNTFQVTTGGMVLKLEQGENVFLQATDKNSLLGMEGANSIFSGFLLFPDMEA
Chain of human C1 complex (C1qC1r2C1s2) (P02747 whole entry, looked up): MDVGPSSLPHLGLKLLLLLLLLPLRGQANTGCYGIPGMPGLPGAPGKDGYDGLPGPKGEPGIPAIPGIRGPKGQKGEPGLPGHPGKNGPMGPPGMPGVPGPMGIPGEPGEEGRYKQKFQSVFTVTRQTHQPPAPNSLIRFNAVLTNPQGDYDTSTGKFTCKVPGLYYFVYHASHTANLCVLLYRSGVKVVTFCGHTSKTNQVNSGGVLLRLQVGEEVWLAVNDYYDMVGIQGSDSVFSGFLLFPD
Chain of human C1 complex (C1qC1r2C1s2) (P02745 whole entry, looked up): as the sequence (P02745 whole entry, looked up, one chain of several) above

With C1s proenzyme (human) as the substance, how does the Kd [1] read?
The Kd was 270 nM.

And the Kd [2]?
The Kd was 170 nM.

For GST-ErpB (natural protein), which Kd [3] is on record?
Its Kd is 41 nM.

And the Kd [4]?
Its Kd is 6.7 nM.

What about the Kd [5] of the same substance?
The Kd was 3.4 nM.

What does the source list for GST-ErpQ (natural protein)?
Kd [3]: 11 nM; Kd [4]: 4.7 nM; Kd [5]: 3.8 nM

How did the Kd [1] turn out when “human C1 complex (C1qC1r2C1s2) (from UniProt P02745 23-245; P02746 28-253; P02747 29-245)” was run?
Its Kd is 5.6 nM.
